The target in assay [1] is HIV-1 CA A14C/E45C/W184A/M185A (HIV-1 (human immunodeficiency virus type 1)). In words: SEC.
Assay [2] concerns the target HIV-1 CA N21C/A22C (HIV-1 (human immunodeficiency virus type 1)). As to the kind of experiment: cross-linking.
Assay [3] addresses HIV-1 CA A42C/T54C (HIV-1 (human immunodeficiency virus type 1)). As to the kind of experiment: cross-linking.
Assay [4] deals with HIV-1 CA A14C/E45C (HIV-1 (human immunodeficiency virus type 1)). As to the kind of experiment: cross-linking.

“HIV-1 CA A14C/E45C/W184A/M185A (natural protein)” displayed a stoichiometry N in assay [1] of 6.
As for HIV-1 CA N21C/A22C (natural protein), the stoichiometry N in assay [2] amounted to 5.
In assay [3], HIV-1 CA A42C/T54C (natural protein) returned a crosslinked 6-mer band, share of the total protein of 30%; a maximal crosslinking of 50%; a stoichiometry N of 6.
In the case of HIV-1 CA A14C/E45C (natural protein), in assay [4], the crosslinking efficiency was over 90% and the stoichiometry N amounted to 6.
